In PMC6053526 one finds binding data, which are given here for four sequences.

What all share (assay): EMSA
Settings in all cases: 5x buffer (3 uL in 14 uL): 20% glycerol, 5 mM MgCl2, 2.5 mM EDTA, 2.5 mM DTT, 250 mM NaCl, 50 mM Tris-HCl pH 7.5, 0.25 mg/ml poly(dI-dC); 0.5 ug protein; 10 min

Series [1] deals with GST-AtWRKY50-C;TGA2-His (Arabidopsis thaliana;Arabidopsis thaliana) (UniProt Q8VWQ5+P43273).
In series [2] the target is T1, TGA2-His (Arabidopsis thaliana) (UniProt P43273).
T1 sequence: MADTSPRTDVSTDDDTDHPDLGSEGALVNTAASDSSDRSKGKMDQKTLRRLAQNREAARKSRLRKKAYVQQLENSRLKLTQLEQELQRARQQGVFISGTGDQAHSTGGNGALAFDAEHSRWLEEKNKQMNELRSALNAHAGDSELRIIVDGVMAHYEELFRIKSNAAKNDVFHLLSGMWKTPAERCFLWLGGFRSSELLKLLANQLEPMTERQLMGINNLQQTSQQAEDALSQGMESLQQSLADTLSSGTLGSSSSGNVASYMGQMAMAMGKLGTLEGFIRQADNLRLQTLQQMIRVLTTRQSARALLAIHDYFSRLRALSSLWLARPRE

For series [3], the target named is GST-AtWRKY50-C (Arabidopsis thaliana) (UniProt Q8VWQ5).
GST-AtWRKY50-C (Arabidopsis thaliana), sequence (Q8VWQ5 86-173): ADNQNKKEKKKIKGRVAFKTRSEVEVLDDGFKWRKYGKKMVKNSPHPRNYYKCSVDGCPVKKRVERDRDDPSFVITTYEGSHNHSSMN

GST-AtWRKY50-C;TGA2-His (Arabidopsis thaliana;Arabidopsis thaliana), sequence (Q8VWQ5 86-173, one chain of several): as the sequence (Q8VWQ5 86-173) above

“TTTCTCTACGTCACTATTTTACTTACGTCATAGATGTGGCGGCATATATTCTTCAGGACTTTTCAGATCTAGGC (double strand) [BCD]”: the binding entry in series [1], in series [2] and in series [3] was “binds” throughout.

In the case of “ATCGGATCCGGTGATCTATTGACTGTTTCTCTACGTCACTATTTTACTTACGTCATAGATGTGGCGGCATATA (double strand) [ABC]”, the binding entry in series [2] and in series [3] was “binds” each time.

As for “CTCTACGCAACTATTTTACTTACGTCATAGATGTGGCGGCATATATTCTTCAGGACTTTTCAGATCTAGGC (double strand) [BCDm1]”, the binding entry in series [1] and in series [2] was “binds” each time.

Take “CATCTATTGCGTAAGTAAAATAGTGACGTAGAGAAACAGTCAATAGATCACCGGATCCGAT (double strand) [ABCm2]”: in series [2], the binding result is on record as “binds more weakly”.
